Data as given in patent publication US20020151477, “Nuclear receptor coactivator” (published 2002).

Key:
[1] = biological target: T1, TRα/RXRα + GST-RAP250 (818-931) complex (Homo sapiens (TRα) / Rattus norvegicus …, UniProt P10827-2;Q05343;Q9JL19 P10827-2:1-410,Q05343:1-467,Q9JL19:818-931); test: EMSA; weak supershift without ligand, pronounced with T3 and/or 9-cis RA; settings: tags: GST-RAP250 purified from E. coli; label: 32P (dCTP)
T1 chain 1: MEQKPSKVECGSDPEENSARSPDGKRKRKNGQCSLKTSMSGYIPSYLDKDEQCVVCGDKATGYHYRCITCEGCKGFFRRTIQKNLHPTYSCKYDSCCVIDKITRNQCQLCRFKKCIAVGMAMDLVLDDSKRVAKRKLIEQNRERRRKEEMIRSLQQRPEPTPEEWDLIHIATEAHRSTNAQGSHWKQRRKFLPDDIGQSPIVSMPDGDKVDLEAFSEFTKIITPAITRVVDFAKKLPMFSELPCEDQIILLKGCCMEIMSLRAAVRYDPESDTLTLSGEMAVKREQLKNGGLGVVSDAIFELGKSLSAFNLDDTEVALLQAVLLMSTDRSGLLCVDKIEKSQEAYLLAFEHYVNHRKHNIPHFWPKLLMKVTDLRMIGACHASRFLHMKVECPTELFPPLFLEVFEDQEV
T1 chain 2: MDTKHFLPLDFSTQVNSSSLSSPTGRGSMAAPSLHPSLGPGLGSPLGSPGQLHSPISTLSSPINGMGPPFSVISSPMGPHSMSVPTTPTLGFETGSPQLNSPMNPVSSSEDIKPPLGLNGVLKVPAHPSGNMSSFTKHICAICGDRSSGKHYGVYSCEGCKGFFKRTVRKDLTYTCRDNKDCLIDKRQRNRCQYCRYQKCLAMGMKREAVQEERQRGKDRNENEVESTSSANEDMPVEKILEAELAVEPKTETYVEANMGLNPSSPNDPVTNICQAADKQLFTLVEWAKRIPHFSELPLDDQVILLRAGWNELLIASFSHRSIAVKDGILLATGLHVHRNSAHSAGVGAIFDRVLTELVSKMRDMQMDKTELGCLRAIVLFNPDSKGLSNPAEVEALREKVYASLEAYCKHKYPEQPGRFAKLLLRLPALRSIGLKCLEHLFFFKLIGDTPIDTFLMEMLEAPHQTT
T1 chain 3: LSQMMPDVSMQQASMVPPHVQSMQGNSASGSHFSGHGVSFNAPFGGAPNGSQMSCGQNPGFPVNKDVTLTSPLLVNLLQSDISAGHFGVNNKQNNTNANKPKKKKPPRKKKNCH

TRβ/RXRα heterodimer = biological target: T2, TRβ/RXRα heterodimer (Homo sapiens (TRβ) / Rattus norvegicus …, UniProt P10828;Q05343 P10828:1-461,Q05343:1-467); test: EMSA; oligomeric complex with GST-RAP250; settings: tags: pCMVhTRβ and pBKCMVrRXRα, rabbit reticulocyte lysate TNT; label: 32P (dCTP)
T2 sequence 1: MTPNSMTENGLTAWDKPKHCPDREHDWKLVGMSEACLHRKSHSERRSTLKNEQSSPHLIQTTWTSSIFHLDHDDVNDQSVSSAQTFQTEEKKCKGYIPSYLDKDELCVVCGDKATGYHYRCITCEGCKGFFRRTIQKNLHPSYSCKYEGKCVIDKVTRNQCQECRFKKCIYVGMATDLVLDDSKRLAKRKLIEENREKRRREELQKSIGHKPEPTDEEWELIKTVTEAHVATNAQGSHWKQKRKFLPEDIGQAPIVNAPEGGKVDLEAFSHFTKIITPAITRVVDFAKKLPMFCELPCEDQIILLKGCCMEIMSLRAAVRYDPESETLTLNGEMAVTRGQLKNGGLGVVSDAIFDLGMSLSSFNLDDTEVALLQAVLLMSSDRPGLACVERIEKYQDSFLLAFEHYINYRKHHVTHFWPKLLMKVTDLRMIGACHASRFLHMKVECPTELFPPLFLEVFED
T2 sequence 2: T1 chain 2

TRα/RXRα heterodimer = biological target: T3, TRα/RXRα heterodimer (Homo sapiens (TRα) / Rattus norvegicus …, UniProt P10827-2;Q05343 P10827-2:1-410,Q05343:1-467); test: EMSA; with and without T3 / 9-cis RA; GST alone does not interact with the complex; on ice; settings: tags: pCMVhTRα and pBKCMVrRXRα, rabbit reticulocyte lysate TNT; label: 32P (dCTP)
T3 sequence 1: T1 chain 1
T3 sequence 2: T1 chain 2

Measured: binding result

B1: DR4-TRE (dsDNA)
DNA 1: TCGATCAGGTCATTTCAGGTCAGAG
DNA 2: CTCTGACCTGAAATGACCTGATCGA
binds: all assays above
